# Test results published in IntAct's records for PubMed 19822759.
# Biological target: sc23a_mouse Sec23a (UniProt Q01405)
# Sequence (Q01405 whole entry): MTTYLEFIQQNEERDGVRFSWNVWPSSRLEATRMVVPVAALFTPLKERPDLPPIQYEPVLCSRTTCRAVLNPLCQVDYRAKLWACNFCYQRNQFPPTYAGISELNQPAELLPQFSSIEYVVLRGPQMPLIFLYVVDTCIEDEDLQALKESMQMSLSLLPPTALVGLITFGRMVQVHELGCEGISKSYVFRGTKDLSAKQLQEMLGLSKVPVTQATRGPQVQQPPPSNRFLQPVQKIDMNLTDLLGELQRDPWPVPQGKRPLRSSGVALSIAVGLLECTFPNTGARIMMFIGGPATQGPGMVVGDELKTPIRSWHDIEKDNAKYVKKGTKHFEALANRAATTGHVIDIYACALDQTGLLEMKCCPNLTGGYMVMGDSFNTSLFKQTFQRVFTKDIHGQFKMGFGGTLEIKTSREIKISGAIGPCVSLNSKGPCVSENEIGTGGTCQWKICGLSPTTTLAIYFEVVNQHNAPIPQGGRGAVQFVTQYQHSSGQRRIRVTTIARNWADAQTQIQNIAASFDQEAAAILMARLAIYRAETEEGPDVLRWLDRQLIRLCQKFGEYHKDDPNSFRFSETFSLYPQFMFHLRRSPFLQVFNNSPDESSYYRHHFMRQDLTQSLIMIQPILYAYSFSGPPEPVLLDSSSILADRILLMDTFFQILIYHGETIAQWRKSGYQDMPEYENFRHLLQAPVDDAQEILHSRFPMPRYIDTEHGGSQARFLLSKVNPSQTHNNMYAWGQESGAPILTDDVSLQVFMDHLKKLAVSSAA
substance,measurement,value
"Small COPII coat GTPase SAR1A (Homo sapiens), Q9NR31 T39N",effect of a mutation on the interaction,disrupting interaction
